According to article doi:10.1101/2021.05.09.442808 (bioRxiv, 2021):

Biological target: SARS-CoV-2 S 2P prefusion-stabilized ectodomain trimer (SARS-CoV-2 (Wuhan-Hu-1), stabilised)
Assay: SPR

B1: S2P6 Fab fragment (Fab, V domains shown)
VH: EVQLVQSGAEVKKPGASVKVSCKASGYTFTSQYMHWVRQAPGQGLEWIGIINPSGVHTSYAQKFQGRVTLTRDTSTSTLYMELSSLRSEDTAVYYCARGSPKGAFDYWGQGTLVTVSS
VL: not shown
Kd: 7 nM
